Measurements published in patent US20150033371A1, “HAIR FOLLICLE STEM CELLS AND METHODS OF USE SAME” (University of Southern California, priority 2011, published 2015).

Experiments:
[1] = DMSO; cited from earlier work
[2] = published reports; cited from earlier work
[3] = test system: hair germ; assay: subcutaneous injection of WNT activator 2 recombinant protein in mice, hair germ activation and hair cycle; format: in vivo; conditions: for hair germ activation: mice (FIG. 12); for telogen to anagen transition: mice (FIG. 13)
From the text: To further investigate the effect of WNT activator 2 in hair germ activation, mice received subcutaneous injection of WNT activator 2 recombinant protein.

Molecule | solubility [1] | toxicity [2] | hair germ activation [3] | hair germ activation ([3]; listed as WNT activator 2) | telogen to anagen transition [3] | telogen to anagen transition ([3]; listed as WNT activator 2)
c1cc(-c2cnn3cc(-c4ccc(OCCN5CCCCC5)cc4)cnc23)ccn1 [Dorsomorphin] | soluble in DMSO | low toxicity | – | – | – | –
WNT activator 2 recombinant protein: recombinant Wnt7a protein (wingless-type MMTV integration site family, member 7A), called WNT activator 2 (protein, UniProt O00755 32-349, looked up) Protein Wnt-7a: LGASIICNKIPGLAPRQRAICQSRPDAIIVIGEGSQMGLDECQFQFRNGRWNCSALGERTVFGKELKVGSREAAFTYAIIAAGVAHAITAACTQGNLSDCGCDKEKQGQYHRDEGWKWGGCSADIRYGIGFAKVFVDAREIKQNARTLMNLHNNEAGRKILEENMKLECKCHGVSGSCTTKTCWTTLPQFRELGYVLKDKYNEAVHVEPVRASRNKRPTFLKIKKPLSYRKPMDTDLVYIEKSPNYCEEDPVTGSVGTQGRACNKTAPQASGCDLMCCGRGYNTHQYARVWQCNCKFHWCCYVKCNTCSERTEMYTCK | – | – | induces precocious hair germ activation | induced precocious hair germ activation | promotes precocious telogen to anagen transition | promoted precocious telogen to anagen transition
